Results: patent publication US20230038638A1, “COMPLEMENT FACTOR I-RELATED COMPOSITIONS AND METHODS” (published 2023)
Numbering of substitutions follows the chain as printed.

Tests used:
[1] = biological target: soluble human C3b (human) (UniProt P01024)
[2] = biological target: T1, human C4b (human) (UniProt P0C0L4)
T1 sequence: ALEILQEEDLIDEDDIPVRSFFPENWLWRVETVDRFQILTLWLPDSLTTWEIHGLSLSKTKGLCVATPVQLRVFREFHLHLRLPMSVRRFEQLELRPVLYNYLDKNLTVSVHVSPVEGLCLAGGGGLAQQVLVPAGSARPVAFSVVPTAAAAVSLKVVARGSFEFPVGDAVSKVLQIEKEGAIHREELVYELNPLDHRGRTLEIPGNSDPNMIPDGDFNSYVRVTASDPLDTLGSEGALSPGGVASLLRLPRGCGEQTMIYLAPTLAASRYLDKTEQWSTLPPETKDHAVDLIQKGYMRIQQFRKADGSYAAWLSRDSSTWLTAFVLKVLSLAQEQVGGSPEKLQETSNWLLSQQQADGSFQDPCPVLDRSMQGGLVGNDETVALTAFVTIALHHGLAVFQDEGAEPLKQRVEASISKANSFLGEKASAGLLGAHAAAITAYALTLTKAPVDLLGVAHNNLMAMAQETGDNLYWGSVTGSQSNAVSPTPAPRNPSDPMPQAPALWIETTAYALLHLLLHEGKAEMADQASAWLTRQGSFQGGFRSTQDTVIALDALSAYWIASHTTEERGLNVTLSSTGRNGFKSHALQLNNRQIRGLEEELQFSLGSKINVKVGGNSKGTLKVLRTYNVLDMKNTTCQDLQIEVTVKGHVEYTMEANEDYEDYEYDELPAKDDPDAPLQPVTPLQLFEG

[3] = biological target: soluble human C3b (human) (UniProt P01024); remark: listed apart in the source
[4] = biological target: T2, human C4b (human) (UniProt P0C0L5)
T2 sequence: T1 sequence with A151T, D317G, P364L, C365S, L368I, D369H, N420S, V451A, L454R, S530A

Sequence of CFI-HSA wild type (enzyme) (chain): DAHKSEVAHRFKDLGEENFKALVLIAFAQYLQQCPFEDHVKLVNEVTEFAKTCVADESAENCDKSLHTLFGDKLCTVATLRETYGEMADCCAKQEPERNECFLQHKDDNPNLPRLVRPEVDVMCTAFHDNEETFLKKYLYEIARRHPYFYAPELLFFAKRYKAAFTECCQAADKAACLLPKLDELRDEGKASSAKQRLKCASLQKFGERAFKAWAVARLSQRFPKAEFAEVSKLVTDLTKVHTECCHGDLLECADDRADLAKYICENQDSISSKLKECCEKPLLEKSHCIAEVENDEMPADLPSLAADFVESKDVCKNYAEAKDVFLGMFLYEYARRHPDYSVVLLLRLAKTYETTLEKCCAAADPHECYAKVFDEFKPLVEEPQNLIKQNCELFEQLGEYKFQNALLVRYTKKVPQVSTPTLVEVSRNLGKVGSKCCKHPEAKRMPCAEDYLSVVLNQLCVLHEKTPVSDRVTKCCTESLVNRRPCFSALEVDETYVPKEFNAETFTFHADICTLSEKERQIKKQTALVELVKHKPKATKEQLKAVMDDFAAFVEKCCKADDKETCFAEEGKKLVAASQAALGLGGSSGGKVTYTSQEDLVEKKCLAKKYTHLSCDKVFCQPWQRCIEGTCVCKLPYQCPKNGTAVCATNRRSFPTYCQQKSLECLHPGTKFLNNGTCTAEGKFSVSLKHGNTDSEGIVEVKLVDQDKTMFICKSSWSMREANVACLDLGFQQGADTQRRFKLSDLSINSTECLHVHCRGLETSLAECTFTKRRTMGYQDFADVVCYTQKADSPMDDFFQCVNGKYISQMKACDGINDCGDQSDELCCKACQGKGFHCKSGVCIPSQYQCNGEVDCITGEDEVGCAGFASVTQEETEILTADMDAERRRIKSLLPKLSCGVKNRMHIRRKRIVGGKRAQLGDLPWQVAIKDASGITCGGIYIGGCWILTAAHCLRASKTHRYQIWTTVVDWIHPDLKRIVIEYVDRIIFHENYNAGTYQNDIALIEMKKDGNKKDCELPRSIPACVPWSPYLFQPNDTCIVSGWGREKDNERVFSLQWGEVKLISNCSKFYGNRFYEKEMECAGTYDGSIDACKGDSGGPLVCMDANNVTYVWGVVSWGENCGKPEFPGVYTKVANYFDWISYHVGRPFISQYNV

| Substance | iC3b EC50 [1] | C4c EC50 [2] | iC3b Screen Ref Fold (fold of CFI-HSA wild type) [3] | C4b Screen Ref Fold (fold of CFI-HSA wild type) [4] | C4c EC50 (nM) [2] | iC3b Screen Ref Fold (fold vs CFI-HSA wild type) [3] | C4b Screen Ref Fold (fold vs CFI-HSA wild type) [4] |
| --- | --- | --- | --- | --- | --- | --- | --- |
| CFI-HSA variant N531G; N422K (enzyme) | 5.2 nM | 42.6 nM | 2.43 | 4.68 |  |  |  |
| CFI-HSA variant Y408L; P535G (enzyme) | 50.9 nM | > 1000 nM | 0.27 | 0 |  |  |  |
| CFI-HSA variant N531G; E457G; E461Q (enzyme) | 5.6 nM |  |  |  | 29.3 nM | 0.95 | 6.42 |
| CFI-HSA variant E457G; N531G; K534Q (enzyme) | 7.1 nM | 16.9 nM | 0.96 | 6.34 |  |  |  |
| CFI-HSA variant Y408L; E457G; P535G; D425K (enzyme) | 5.2 nM | 46.5 nM | 0.04 | 2.13 |  |  |  |
| CFI-HSA variant N531G; P535A (enzyme) | 7.9 nM |  |  |  | 53.4 nM | 1.53 | 5.6 |
| CFI-HSA variant E530F (enzyme) | 21.8 nM |  |  |  | > 1000 nM | 0.98 | 0.08 |
| CFI-HSA variant D506G (enzyme) | > 500 nM |  |  |  | > 1000 nM | 0 | 0.09 |
| CFI-HSA variant Q467K; F537K (enzyme) | 12.7 nM |  |  |  | 615 nM | 1.31 | 0.85 |
| CFI-HSA wild type (enzyme) | 28.4 nM |  |  |  | 299 nM | 1 | 1 |
| CFI-HSA variant Y408L; E457G; N531G; D425K (enzyme) | 4.7 nM | 13.5 nM | 0.58 | 5.1 |  |  |  |
| CFI-HSA variant E457G; N531G; N422K (enzyme) | 4.7 nM | 7 nM | 1.46 | 4.37 |  |  |  |
| CFI-HSA variant E457H (enzyme) | 78.7 nM |  |  |  | 886 nM | 0.26 | 0.31 |
| CFI-HSA variant N476Q (enzyme) | 15.7 nM |  |  |  | > 1000 nM | 1.03 | 0.85 |
| CFI-HSA variant E457D (enzyme) | 12.3 nM |  |  |  | 162 nM | 1.21 | 4.7 |
| CFI-HSA variant A502S; K504Q; F537K (enzyme) | 31.2 nM |  |  |  | 810 nM | 1.07 | 0.93 |
| CFI-HSA variant Y408H (enzyme) | 43.3 nM |  |  |  | > 1000 nM | 0.82 | 0.05 |
| CFI-HSA variant Q467K (enzyme) | 18.7 nM |  |  |  | 246 nM | 0.95 | 3.04 |
| CFI-HSA variant E457I (enzyme) | 20.5 nM |  |  |  | 256 nM | 0.99 | 1.75 |
| CFI-HSA variant Y408L-N531G (enzyme) | 10.6 nM |  |  |  | 70.5 nM | 1.09 | 5.29 |
